US20050096268A1

Legend:
[1] = biological target: human IL-13 (human) (UniProt P35225); experiment: Biacore SPR; IL-11R-Ig immobilized, 100 ng/ml human IL-13 injected
[2] = biological target: human IL-13 (human) (UniProt P35225); experiment: Biacore SPR; human IgG1 immobilized, 100 ng/ml human IL-13 injected
[3] = biological target: murine IL-13 (murine) (UniProt P20109); experiment: cell-based or functional assay
UniProt P20109, sequence (P20109 21-131 limits assumed): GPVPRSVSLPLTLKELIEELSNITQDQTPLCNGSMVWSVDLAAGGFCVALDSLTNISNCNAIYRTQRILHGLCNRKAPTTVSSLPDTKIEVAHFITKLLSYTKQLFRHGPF

UniProt P35225, sequence (P35225 35-146 limits assumed): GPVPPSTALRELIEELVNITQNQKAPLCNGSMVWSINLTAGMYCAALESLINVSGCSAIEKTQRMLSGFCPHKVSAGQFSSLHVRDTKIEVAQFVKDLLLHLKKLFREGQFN

An RU bound [1] of 3.7 RU was found for IL-11R-Ig (Fc fusion) in this work.

An RU bound [2] of 5.4 RU was found for human IgG1 (IgG control) (antibody) in this work.

An in vitro ID50 in the B9 proliferation assay [3] of 10 ng/mL was found for “soluble IL-13 receptor α2-Fc fusion protein (sIL-13Rα2-Fc) (from UniProt O88786 22-331)” in this work.
